Measured values reported in publication PMC4558368.

Target: Extracellular region of FcγRIIIa (residues 19-193, V158 allotype) (UniProt P08637)
Experiment: SPR

Substance | Kd
Human IgG1 Fc D265A (glycosylated variant) (domain or fragment) | > 50 µM
Human IgG1 Fc T299A (aglycosylated variant) (domain or fragment) | > 50 µM
